In the nanobody polyreactivity screen of Harvey et al. (2022):

Assay: yeast display, Sf9 membrane polyspecificity reagent, FACS + sequencing; frameworks hold sequencing errors
How it was run: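 Galactose induction of a Saccharomyces cerevisiae BJ5465 synthetic nanobody display library ran 36–48 hours. The cells were then stained for 1 hour at 4 °C with 10% biotinylated, detergent-solubilized Sf9 membrane reagent, pulled down on streptavidin microbeads and FACS-sorted into low and high (top ~1%) gates on expression and reagent-binding fluorescence. Labels for polyreactivity follow the gate of origin.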

Row | Sequence | polyreactivity (PSR sort gate)
1 | QVQLVESGGGLVQAGGSLRLSCAASGLIFRWYDMGWYRQAPGKDRELVAAITRGGGTNYADSVKGRFTLSRDNAKNTVYLQMNSLKPEDTAVYYCAARLIKYGRAWTFGGYDYWGQGTQVSVSS | high polyreactivity
2 | QVQLVESGGGLVQAGGSLRLSCAASGLIFRYYAMGWYRQAPGKERELVAAIDGSDGITYYADSVKGRFTISRDNAKNTVYLQMNSLKPEDTEVYYCDAAFYYWGQGTQVTVSS | low polyreactivity
3 | QVQLVESGGGLVQAGGSLRLSCAASGLIFRYYAMGWYRQAPGKERELVATIRGGGSTYYADSVKGRFTISRDNAKNTVYLQMNSLKPEDTAVYYCAADPYSYGARGSRGDYWGQGTQVTVSS | low polyreactivity
4 | QVQLVESGGGLVQAGGSLRLSCAASGLIFRYYAMGWYRQAPGKESELVAAITSGGGTYYADSVKGRFTISRDNAKNTVYLQMNSLKPEDTAFYYCAVGSYGHPKHRRNLDYWGQGTQVTVSS | low polyreactivity
5 | QVQLVESGGGLVQAGGSLRLSCAASGLIFSDYAMGWYRQAPGKERELVAAISGIGTRTSYADSVKGRFTISRDNAKNTVYLQMNSLKPEDTAVYYCAARYYGFPSTLKYDYWGQGTQVTVSS | high polyreactivity
6 | QVQLVESGGGLVQAGGSLRLSCAASGLIFSEYAMGRSRQAPWKERELVAAIRSDGGSTYYADSVKGRFTISRDNAKNSVYLQMNSLKPEDTAVYYCNAPYRRSAKFRRYGYDYWGQGTQVTVSS | high polyreactivity
7 | QVQLVESGGGLVQAGGSLRLSCAASGLIFSGYAMGWYRQAPGKERELVAAINSGTSTTYADSVKGRFTISRDNAKNTVYLQMNSLKPEDTAVYYCNTPHNQDKPYPGYDYWGQGTQVTVSS | low polyreactivity
8 | QVQLVESGGGLVQAGGSLRLSCAASGLIFSGYAMGWYRQAPGKERELVAAISRGGGRTSYADSVKGRFTISRDNAKNTVYLQMNSLKPEDTAVYYCAKDPRYLRYDHWGQGTQVTVSS | high polyreactivity
9 | QVQLVESGGGLVQAGGSLRLSCAASGLIFSHYTMGWYRQAPGKERELVAAITSSGGSTYYADSVKGRFTISRDNAKNTVYLQMNSLKPEDTAVYYCNVDYYEPSWYDDDYWGQGTQVTVSS | low polyreactivity
10 | QVQLVESGGGLVQAGGSLRLSCAASGLIFSKNVMGWYRQAPGKERELVAAISQRGGSTYYADSVKGRFTISRDNAKNTVYLQMNSLKPEDTAVYYCAARSRRRDDYWGQGTQVTVSS | high polyreactivity
11 | QVQLVESGGGLVQAGGSLRLSCAASGLIFSNNAMGWYRQAPGKERELVAAITSSGSRTYYADSVKGRFTISRDNAKNTVYLEMNRLKPEDTAVYYCAAYEVPYQRRYGYWGQGTQVTVSS | high polyreactivity
12 | QVQLVESGGGLVQAGGSLRLSCAASGLIFSQYAMGWYRQAPGKEREFVARISSSGGSTYYADSVKGRFTISRDNAKNTVYLQMNSLKPEDTAVYYCAAVGGRNIRVWFRTKYDYWGQGTQVTVSS | low polyreactivity
13 | QVQLVESGGGLVQAGGSLRLSCAASGLIFSRYAMGWYRQAPGKERELVAAISSSGGTTYYADSVKGRFTISRDNAKNTVYLQMNSLKPEDTAVYYCAAGVAWRFYSWGQGTQVTVSS | high polyreactivity
14 | QVQLVESGGGLVQAGGSLRLSCAASGLIFSSNAMGWARQAPGKEREWVAAITSGGSTNYADSVKGRFTISRDNAHNTVYLQMNSLKPEDTAVYYCNAVSPHYFGGSYDYWGQGTQVTVSS | low polyreactivity
15 | QVQLVESGGGLVQAGGSLRLSCAASGLIFSSNAMGWYRQAPGKERELVATISWSGGSTYYADSVKGRFTISRDNAKNTVYLQMNSLKPEDTAVYYCCWSALNGYDYWGQGTQVTVSS | high polyreactivity
16 | QVQLVESGGGLVQAGGSLRLSCAASGLIFSSYAMGWYSQAPGKERELVAAITSGGNTNYADSVKGRFTISRDNAKNTVYLHMNSLKPEDTAVYYCSAVWWTYVAAPGYDYWGQGTQVTVSS | low polyreactivity
17 | QVQLVESGGGLVQAGGSLRLSCAASGLIFSSYPKGWYRQAPGKEWVLVAAITRTGGDTYYADSVKGRFTISRDNAQNSFYLQMNSLKPEDTAVYYCSSSGPQYYSRNFDYWGQGTQVTVSS | low polyreactivity
18 | QVQLVESGGGLVQAGGSLRLSCAASGLIFSTYDMGWYRQAPGKDRELVAAISTGGSTYCADSVKGRFTMSRDNAKYTVYLQMNSLKPEDTAVYYCAAGYTYHSWPLYYWDYNYWGQGTQVTVSS | low polyreactivity
19 | QVQLVESGGGLVQAGGSLRLSCAASGLIFSVYAMGWYRQAPGKERELVARISINGGSTYYADSVKGRFTISRDNAKNTVYLQMNSLKPEDTAVYYCNAVRITHYVRYYYWGQGTQVTVSS | high polyreactivity
20 | QVQLVESGGGLVQAGGSLRLSCAASGLIFSYNAMGWYRQAPGKERELVAAISANGGRTYYADSVKGRFTISRDNAKNTVSLQMNSLKPEDTAVYYCAAQGSRKLFYTDSGYWGQGTQVSVSS | high polyreactivity
21 | QVQLVESGGGLVQAGGSLRLSCAASGLIFTGYAMGWYRQAPGKERELVAAITSGGGTNYADSVKGRFTISRDNAKNTVYLQMNSLKPEDTAVYYCAVDFGHYYLYSITSYLWYWDGYDYWGQGTQVTVSS | low polyreactivity
22 | QVQLVESGGGLVQAGGSLRLSCAASGLIFTKAMGWYRQAPGKEREFVAAINSSGGSTYADSVKGRFTISRDNAKNTVYLQMNSLKPEDTAVYYCAARVNYLYEYWGQGTQVTVSS | low polyreactivity

Row | Sequence | polyreactivity (PSR sort gate)
23 | QVQLVESGGGLVQAGGSLRLSCAASGLIFTPYAMGWYRQAPGKERELVAAINYGGSRTYYADSVKGRFTISRDNAKNTVYLQMNSLKPEDTAVYYCNVVKRSFRYDYWGEGTQVTVSS | high polyreactivity
24 | QVQLVESGGGLVQAGGSLRLSCAASGLIFTSYAMGWYRQAPGKERELVAAISYSGGTTIYADSVKGRFTISRDYAKNTVYLQMNSVKPEDTAVYYCAADSLSTTHDTLGYDRDDYWGQGSQVTVSS | low polyreactivity
25 | QVQLVESGGGLVQAGGSLRLSCAASGLIFTYYAMGWYRQAPGKERELVAAINWSGGSTYYADSVKGRFTISRDNAKNTVYLQMNSLKPEDTAVYYCAAAYANYRFYYWGQGTQVTVSS | high polyreactivity
26 | QVQLVESGGGLVQAGGSLRLSCAASGLIFVGYAMGWYRQAPGTERELVAAITSGGSTNYADSVKGRFTISRDNAKNTVYLQMNSLKPEDTAVYYCAASDAIPLRYDYWGQGTQVTVSS | low polyreactivity
27 | QVQLVESGGGLVQAGGSLRLSCAASGLIFVHYAMGWYRQAPGKERELVAAISAGGGSTYYADSVKGRFTISRDNAKNTVYLQMNSLKPEDTAVYYCNARVVNYFRPRTGAREYDYWGQGTQVTVSS | high polyreactivity
28 | QVQLVESGGGLVQAGGSLRLSCAASGLIFVINAMGWYRQAPGKERELVATISSGVSTNYADSVKGRFTISRDNAKNTVYLQMNSLKPEDTAVYYCNAPEITYYYAPWETKIYDYWGQGTQVTVSS | low polyreactivity
29 | QVQLVESGGGLVQAGGSLRLSCAASGLIFVSYAMGWYRQAPGKERELVASITDSDSSTYYADSVKGRFTISRDNAKNTVYLQMNSLKPEDTAVYYCATGGRTEIWYPTLDYWGQGTQVTVSS | low polyreactivity
30 | QVQLVESGGGLVQAGGSLRLSCAASGLIFVTNAMGWYRQAPGKERELVAAITRSGGSTYYADSVKGRFTISRDNAKITVYLQMNSLKPEDTAVYYCATGFHYAYGYCGQGTQVTVSS | low polyreactivity
31 | QVQLVESGGGLVQAGGSLRLSCAASGLIFVVYVMGWYRQAPGKERQLVAAMYGSGDSTYYADSVKGRFTISRDNAKNSVSLKMNSLKPEDTAVYSCAAKAFISDGYWYGYWGQGTQVTVSS | high polyreactivity
32 | QVQLVESGGGLVQAGGSLRLSCAASGLIFWGYTMGWYRPAPGKERELVASITTSGSTYYADSVKGRFTISRDNAKNTVYLQMNSLKPEDTAVYYCAVDNYYTPWYPYLGYDSWGQGTQVTVSS | low polyreactivity
33 | QVQLVESGGGLVQAGGSLRLSCAASGLIFWRYDMGWYRQAPGKERELVAVITSGGNTYYADAVKGRFRISRDNAKNTVYLQMNSLKPEDTAVYYCNADTWRDDYDYWGQGTQVTVAS | low polyreactivity
34 | QVQLVESGGGLVQAGGSLRLSCAASGLIFWYYTMGWYRQAPGKERELVAAITIGGSTYYADSVKGRFTISRDNAKNTVYLQMNSLKPEDTAVYYCNTRRGRSQGGRYEYDYWGQGTQVTVSS | low polyreactivity
35 | QVQLVESGGGLVQAGGSLRLSCAASGLIFYAYAMGWYRPAPGKERELVAAITSGSGTNYADSVKGRFTISRDNAKNTVYLQMNSLKPEDTAVYYCNAETYGLVPYYIYHYDFDYWGQVTQVTVSS | high polyreactivity
36 | QVQLVESGGGLVQAGGSLRLSCAASGLIFYAYYMGWYRQAPGKERELVAAISYSGGSTYYADSVKGRFTISRDNAKNTVYLQMNSLKPEDTSVYYCAADDGISTYEYWGQGTQVTVSS | high polyreactivity
37 | QVQLVESGGGLVQAGGSLRLSCAASGLIFYDNMGWYRQAPGKERELVAAISSSGGSTSYADSVKGRFTISRDNAKNTVYFLMNSLKPEDTAVYYCAADQYYYWYTHQSIGYDYWGQGTQVTVSS | low polyreactivity
38 | QVQLVESGGGLVQAGGSLRLSCAASGLIFYFNGMGLYRQAPGKERELVASISASGDRTYYADSVKGRFTISRDNAKNTVYLQMNSLKQEDTAVYYCATDANTYTKYDYWGQGTQVSVSS | low polyreactivity
39 | QVQLVESGGGLVQAGGSLRLSCAASGLIFYGNAMGWYRQAPGKERELVADITGSSVRTYSADSVKGRFTISRDNAKNTVYVQMNSLNRKIPRSITALNVSCTSVVVGYDYWGQGTQVTVSS | low polyreactivity
40 | QVQLVESGGGLVQAGGSLRLSCAASGLIFYGNAMGWYRQSPGKDRELVAAISRRGGRTYYADSVKGRFTISRDNAENTVYLQMNSLKPEDTAVYYCSAQYSYPYYKVTLYYWGQGTQVTVSS | high polyreactivity
41 | QVQLVESGGGLVQAGGSLRLSCAASGLIFYINAMGWYRQAPGKERELVASITRTGSTNYADSVKGRFTISRDNAKNTVYLQMNSLKAEDTAVYYCAAYGPVYPHEYDYWGQGTQVTVSS | low polyreactivity
42 | QVQLVESGGGLVQAGGSLRLSCAASGLIFYLYAMGWYRQAPGKERELVAAFTYSGGSTRYADSVKGRFTISRDNAKNTVYLQMNSLKPEDTAVYYCNADGTAPTEMDYWGQGTQVTVSS | low polyreactivity
43 | QVQLVESGGGLVQAGGSLRLSCAASGLIFYNYAMGWYRQAPGKERELVAAISRSGGRTYYADSVKGRFTISRDNAKNTVYLQMNSLKPEDTAVYYCNAVHVSIEGYYWGQGTQVTVSS | high polyreactivity
